# Test results taken from PMC7725843, “Structural and biochemical analyses of an aminoglycoside 2′-N-acetyltransferase from Mycolicibacterium smegmatis” (Scientific Reports, 2020).
# Experiments:
# Test in all cases: purified protein
# Assay type in all cases: biochemical, Mycolicibacterium smegmatis
# [1] = tested on: NC[C@H]1O[C@H](O[C@H]2[C@H](O)[C@@H](O[C@H]3O[C@H](CO)[C@@H](O)[C@H](N)[C@H]3O)[C@H](N)C[C@@H]2N)[C@H](O)[C@@H](O)[C@@H]1O; conditions: 300 μM acetyl-CoA, 50 mM MES pH 6.5, 200 μM DTNB, 25 °C
# [2] = tested on: CC(=O)SCCNC(=O)CCNC(=O)[C@H](O)C(C)(C)COP(=O)(O)OP(=O)(O)OC[C@H]1O[C@@H](n2cnc3c(N)ncnc32)[C@H](O)[C@@H]1OP(=O)(O)O; conditions: aminoglycoside co-substrate not told, 50 mM MES pH 6.5, 200 μM DTNB, 25 °C
# [3] = tested on: NC[C@@H]1O[C@H](O[C@H]2[C@@H](O)[C@H](O[C@@H]3[C@@H](O)[C@H](N)C[C@H](N)[C@H]3O[C@H]3O[C@H](CO)[C@@H](O)[C@H](O)[C@H]3N)O[C@@H]2CO)[C@H](N)[C@@H](O)[C@@H]1O; conditions: 300 μM acetyl-CoA, 50 mM MES pH 6.5, 200 μM DTNB, 25 °C
# [4] = tested on: NC[C@H]1O[C@H](O[C@H]2[C@H](O)[C@@H](O[C@H]3O[C@H](CO)[C@@H](O)[C@H](N)[C@H]3O)[C@H](N)C[C@@H]2N)[C@H](N)C[C@@H]1O; conditions: 300 μM acetyl-CoA, 50 mM MES pH 6.5, 200 μM DTNB, 25 °C
substance,measurement,setting,value
AAC(2′)-Id (Mycolicibacterium smegmatis MC2 155),Km,[1],(1.67 ± 0.84) × 10^2 μM
same,kcat,[1],0.13 ± 0.03 s⁻¹
same,kcat/Km,[1],817 ± 620 M⁻¹ s⁻¹
same,kcat,[2],0.34 ± 0.03 s⁻¹
same,kcat/Km,[2],5670 ± 1620 M⁻¹ s⁻¹
same,Km,[3],(1.04 ± 0.14) × 10^2 μM
same,kcat,[3],1.08 ± 0.06 s⁻¹
same,kcat/Km,[3],10400 ± 2100 M⁻¹ s⁻¹
same,Km,[4],(1.86 ± 0.10) × 10^2 μM
same,kcat,[4],3.34 ± 0.1 s⁻¹
same,kcat/Km,[4],18000 ± 1600 M⁻¹ s⁻¹
